# Reference: patent US11034736B2, “Anti-viral cnidarins” (priority 2014, dated 2021)
# B1: CNID-1: HIV-inhibitory protein from soft coral Synthecium sp.; 172 amino acids, 18,122 Da, SEQ ID NO: 1 (protein)
# chain: GRATLGQLKTSTIPPVTFDVPFDGANIPQDVRFTIATVNGGKGALYNAELGESAGHTIVLESDGDHPIPGTFDPKSGRGLDYLPRGLVLFSSHNYVGNMKMYTEPDSDITADFPPGTPFGVSSAITGEGSAFQLNTGIDHTGEFEIIPPNTKRNLAGVFDNEIRSVSPTGGK
# Tests used:
# HIV-1RF = assay: XTT-tetrazolium anti-HIV assay, HIV-1RF in CEM-SS cells; type: cell-based; settings: HIV-1RF, T-tropic laboratory strain, CEM-SS cells, XTT, 6 days
# Protocol: A 2,3-bis-[2-methoxy-4-nitro-5-sulfophenyl]-2H-tetrazolium-5-carboxanilide inner salt (XTT)-tetrazolium-based assay was used to determine the anti-HIV activity of CNID-1, -2 and -3 against a T-tropic laboratory strain (HIV-1RF) in T-lymphoblastic CEM-SS cells as described previously (Gulakowski et al., J. Virol. Methods, 33: 87-100 (1991)). CEM-SS cells were maintained in RPMI 1640 media without phenol red and supplemented with 10% fetal bovine serum (BioWhittaker), 2 mM L-glutamine (BioWhittaker), and 50 μg/ml gentamicin (BioWhittaker) (complete medium). Exponentially growing cells were washed and resuspended in complete medium, and a 50 μl aliquot containing 5×10^3 cells was added to individual wells of a 96-well round-bottom microtiter plate containing serial dilutions of the respective cnidarin protein in a volume of 100 μl of medium. Stock supernatants of HIV-1RF were diluted in complete medium to yield sufficient cytopathicity (80-90% cell kill in 6 days), and a 50 μl aliquot was added to appropriate wells. Plates were incubated for 6 days at 37° C. and then stained for cellular viability using XTT.
# The HIV reverse transcriptase inhibitor 3′-Azido-3′-deoxythymidine (AZT) was used as a positive control. All assays were carried out in triplicate for all viruses and cells.
# HIV-1IIIB [1] = assay: Viral fusion assay, chemiluminescence in HeLa CD4 LTR β-gal cells; type: cell-based
# Protocol: (§1) Attachment and fusion assays were performed in HeLa-CD4-LTR-β-galactosidase cell lines as described previously (Gartner & Popovic, (1990), supra) with the following modifications. Following the interaction of HIV-1IIIIIB with HeLa CD4 LTR β-gal cells, viral attachment to HeLa CD4 LTR β-gal cells was detected as cell-associated p24 antigen following a 1 hour adsorption of virus and vigorous washing for removal of unbound virus. Fusion of HIV-1IIIIB with HeLa CD4 LTR β-gal cells was detected by chemiluminescence using a single-step lysis and detection method (Tropix Gal-screen, Bedford, Mass.) and results reported as EC50 values. Chicago Sky Blue, a polysulfonic acid dye inhibitor of HIV attachment and fusion, was used as a positive control for all assays (Clanton et al., J. Acquired Immune Defic. Syndr., 5: 771-781 (1992)).
# HIV-1IIIB [2] = assay: Viral attachment assay, cell-associated p24 antigen in HeLa CD4 LTR β-gal cells; type: cell-based
# Protocol: as §1
# HIV-1IIIB gp120 = HIV-1IIIB gp120 (Human immunodeficiency virus type 1 group M subtype B, UniProt P04578)
# Protocol: Additional ELISA studies were performed to assess the effect of monosaccharides on CNID-1 binding to gp120 and gp41. The plates were prepared with native HIV-1IIIB gp120 (Advanced Biotechnologies, Columbia, Md.) or recombinant HIV-1HxB2 gp41 (Vybion Inc., Ithaca, N.Y.), and 100 ng/well rCNID-1-Trx was added in the presence or absence of 1 mM concentrations of the following sugars: glucose, mannose, galactose, fucose, xylose, N-acetylglucosamine (GlcNAc), N-acetylgalactosamine (GalNAc), or 100 ng/well α-acid glycoprotein (to act as a carrier for sialic acid). The plates were then washed and visualized using anti-CNID-1 polyclonal antibodies as above.
# Plates to test the effect of sCD4 on CNID-1 binding to gp120 were prepared with recombinant HIV-1IIIB gp120 (Immuno Diagnostics, Woburn, Mass.) at 4° C. overnight (100 ng/well) and blocked as previously described. Serial dilutions of rCNID-1-Trx were added in the presence (test plate) or absence (control plate) of 50 ng/well sCD4 (sCD4-183, 2-domain, NIH AIDS Research & Reference Reagent Program, Germantown, Md.) and incubated for 1 hr. Plates were washed and visualized as above. Plates to test for the effect of CV-N, SVN or GRFT on CNID-1 binding to gp120 were prepared with recombinant HIV-NIIIB gp120 (Immuno Diagnostics, Woburn, Mass.) at 4° C. overnight (100 ng/well) and blocked as previously described. CV-N (100 ng/well), SVN (100 ng/well) or GRFT (130 ng/well) were added (PBST was added to control wells) and incubated for 30 minutes, followed by serial dilutions of rCNID-1-Trx and further incubated for 75 minutes. The plates were then washed and visualized using anti-CNID-1 polyclonal antibodies as previously outlined.
# Plates were prepared with recombinant HIV-1IIIIB gp120 (Immuno Diagnostics, Woburn, Mass.) at 4° C. overnight (100 ng/well) and blocked as previously described. rCNID-1-Trx were added: 250 ng/well for sCD4 test plate or 500 ng/well for the GRFT test plate, and PBST (50 μl/well) to the control plate; incubation done for 2 hrs. The plates were washed as before and serial dilutions of sCD4 (sCD4-183, 2-domain, NIH AIDS Research & Reference Reagent Program, Germantown, Md.) or GRFT were added; incubated for 1 hr 10 minutes. Plates were washed as before. Primary antibodies were added at 100 μl/well: mouse anti-CD4 (ProSci Inc., Poway, Calif.) at 1:1000 dilution or rabbit anti-GRFT at 1:500 dilution; incubation done for 1 hr. The plates were washed as before and peroxidase conjugated secondary antibodies (Thermo Fisher Scientific Inc., Rockford, Ill.) were added at 100 μl/well: goat anti-mouse (sCD4 plate) or goat anti-rabbit (GRFT plate) at a 1:1000 dilution; incubation for 1 hr. The plates were then washed and visualized as previously outlined.
molecule,measurement,setting,value
B1,EC50,HIV-1RF,0.0845 nM
same,Inhibition of viral fusion,HIV-1IIIB [1],inhibit HIV viral fusion
same,EC50,HIV-1IIIB [1]; read-out: Inhibition of Fusion EC50,1.49 nM
same,Inhibition of viral attachment to the cell,HIV-1IIIB [2],did not inhibit attachment
same,EC50,HIV-1IIIB [2]; read-out: Inhibition of Attachment EC50,> 55.2 nM
same,CNID-1 binding to gp120 after CV-N pre-treatment,HIV-1IIIB gp120; CV-N 100 ng/well,did not affect CNID-1 binding
same,CNID-1 binding to gp120 after GRFT pretreatment,HIV-1IIIB gp120; ELISA,reduced CNID-1 binding to gp120
same,CNID-1 binding to gp120 after pretreatment with sCD4,HIV-1IIIB gp120; ELISA,did not block CNID-1 binding to gp120
same,sCD4 binding to gp120 after pre-treatment with CNID-1,HIV-1IIIB gp120; ELISA,did not block subsequent binding of sCD4 to gp120
same,CNID-1 binding to gp120 after SVN pre-treatment,HIV-1IIIB gp120; SVN 100 ng/well,did not affect CNID-1 binding
same,GRFT binding to gp120 after pretreatment with CNID-1,HIV-1IIIB gp120; rCNID-1 500 ng/well,did not inhibit GRFT binding to gp120
same,CNID-1 binding to gp120 in presence of α-acid glycoprotein,HIV-1IIIB gp120; α-acid glycoprotein as carrier of sialic acid,not inhibited
